Experimental data taken from US20080213296A1.
“And” between values parts separate entries of the source, which are not always exact repeats. Equal entries are not always repeated.

Assays:
[1] = biological target: HIV 89.6 gp120 envelope protein (soluble) (HIV 89.6 (Clade B) primary isolate); test: SPR capture assay, mAb pre-incubated with 89.6 gp120, captured on A32; competitor DP178 50 µg/ml
[2] = biological target: soluble CD4 (UniProt P01730); test: SPR, gp120 over immobilized CD4
[3] = biological target: soluble CD4 (UniProt P01730); test: SPR
[4] = biological target: scrambled sequence DP178 peptide; test: SPR SA-chip assay, A32 over biotinylated scrDP178
[5] = biological target: HIV 89.6 gp120 envelope protein (soluble) (HIV 89.6 (Clade B) primary isolate); test: SPR capture assay, gp120 over immobilized A32
[6] = biological target: HIV 89.6 gp140 envelope protein (cleaved gp140 preparation, oligomers) (HIV 89.6 (Clade B) primary isolate); test: SPR, D1 peptide over directly immobilized 89.6 gp140, no CD4
[7] = biological target: HIV 89.6 gp140 envelope protein (cleaved gp140 preparation, oligomers) (HIV 89.6 (Clade B) primary isolate); test: SPR, sCD4-ligated gp140
[8] = biological target: HIV 89.6 gp140 envelope protein (cleaved gp140 preparation, oligomers) (HIV 89.6 (Clade B) primary isolate); test: SPR, D1 peptide over 89.6 gp140 captured on immobilized CD4 (CD4-gp140 complex)
[9] = biological target: HIV 89.6 gp120 envelope protein (soluble) (HIV 89.6 (Clade B) primary isolate); test: SPR SA-chip assay, 89.6 gp120 alone over biotinylated scrDP178
[10] = biological target: recombinant HIV ADA gp41 protein (HIV ADA); test: SPR, 89.6 gp120 pre-incubated with 0.3 mg/ml CD4, over immobilized ADA gp41
[11] = biological target: recombinant HIV ADA gp41 protein (HIV ADA); test: SPR, 89.6 gp120 (100 µg/ml) over immobilized ADA gp41

Substance	% blocking of DP178 binding [1] [%]	Kd [2] [nM]	koff [2] [s⁻¹]	t1/2 of binding [3] [min]	also measured
mAb 48d (human, coreceptor binding site of gp120) (antibody)	80	–	–	–	–
HIV DH12 gp120 (soluble, monomeric)	–	96	0.00047	25	–
mab 17b (human, CCR5/coreceptor binding site of gp120) (antibody)	80	–	–	–	–
mab 19b (human anti-gp120 V3 loop) (antibody)	68	–	–	–	–
mab A32 (human anti-gp120, conformational determinant) (antibody)	–	–	–	–	RU (background signal) [4]: 10 RU and 20 RU; RU bound [5]: 2000 RU
HIV JRFL gp120 (soluble, monomeric)	–	146	0.00088	14	–
CCR5-D1 peptide (CCR5 N-terminal extracellular domain peptide)	–	–	–	–	Kd [6]: 1000 nM; koff [6]: 0.01 s⁻¹; Kd [7]: 280000 nM; Kd [8]: 280 nM; koff [8]: 0.00256 s⁻¹; kon [8]: 9000 M⁻¹ s⁻¹
scrambled sequence DP178 peptide	–	–	–	–	RU (constitutive binding) [9]: 50 RU
HIV 89.6 gp120 envelope protein (soluble)	–	23	0.00011	105	RU bound [10]: 850 RU; RU bound [11]: 300 RU
